From paper PMC11081419

Biological target: CCL18 (human) (UniProt P55774)
Experiment: SPR
Settings: domain or fragment

Chain of EVA‐ACA1001(ΔN) (A0A023FFD0 29-136, stated change not applied): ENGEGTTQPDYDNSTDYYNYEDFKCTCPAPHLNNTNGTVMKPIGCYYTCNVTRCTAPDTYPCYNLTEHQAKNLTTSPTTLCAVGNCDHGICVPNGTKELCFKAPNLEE
Chain of CCL18 (human) (P55774 21-89): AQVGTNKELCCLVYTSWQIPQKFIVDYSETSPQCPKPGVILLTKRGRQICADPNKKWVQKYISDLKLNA

Substance: EVA‐ACA1001(ΔN) (from UniProt A0A023FFD0)
- Kd: < 0.1 nM
